Source: patent US20030113774A1

Experiments:
[1] = biological target: pGal4-AD-p53-2 (p53 clone 2 from the mouse embryonic cDNA library, fused to Gal4-AD) (mouse) (UniProt P02340); test: yeast two-hybrid, quantitative liquid β-galactosidase assay
[2] = biological target: pGal4-AD-p53-1 (p53 clone 1 from the mouse embryonic cDNA library, fused to Gal4-AD) (mouse) (UniProt P02340); test: as above
[3] = biological target: pGal4-AD-SV40 (control plasmid, SV40 protein fused to Gal4-AD) (UniProt P03070); test: yeast two-hybrid, quantitative liquid β-galactosidase assay (positive control pair)
Chain of UniProt P03070 (P03070 84-708): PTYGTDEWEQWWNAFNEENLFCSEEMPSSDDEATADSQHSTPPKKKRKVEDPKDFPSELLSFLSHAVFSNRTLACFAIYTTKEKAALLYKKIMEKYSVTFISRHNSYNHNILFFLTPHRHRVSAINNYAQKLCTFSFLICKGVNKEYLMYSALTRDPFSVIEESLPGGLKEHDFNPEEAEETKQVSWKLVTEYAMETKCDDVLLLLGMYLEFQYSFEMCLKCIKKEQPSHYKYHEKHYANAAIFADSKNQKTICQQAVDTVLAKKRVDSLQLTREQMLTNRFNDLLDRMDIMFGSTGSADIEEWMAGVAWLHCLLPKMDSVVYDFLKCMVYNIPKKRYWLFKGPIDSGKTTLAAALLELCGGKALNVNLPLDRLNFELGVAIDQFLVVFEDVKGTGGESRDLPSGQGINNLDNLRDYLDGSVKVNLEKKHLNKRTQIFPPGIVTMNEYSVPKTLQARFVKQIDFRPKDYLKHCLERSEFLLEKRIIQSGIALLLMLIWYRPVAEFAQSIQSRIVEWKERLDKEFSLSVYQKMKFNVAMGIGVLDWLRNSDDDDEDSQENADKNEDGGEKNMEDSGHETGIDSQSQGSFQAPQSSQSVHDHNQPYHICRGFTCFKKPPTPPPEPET

| Substance | β-galactosidase [1] [nmol/min/mg] | β-galactosidase [2] [nmol/min/mg] | β-galactosidase [3] [nmol/min/mg] |
| --- | --- | --- | --- |
| pGal4-BD-p40 bait fusion protein comprised of the Gal4 binding domain and a p40 protein (from UniProt P04386 1-147) | 31.8 | 33.6 |  |
| pGal4-BD-p53 (control plasmid, p53 fused to the Gal4 binding domain) (from UniProt P04386 1-147) |  |  | 65.3 |
